# Reference: PMC11440607 (Journal of Medicinal Chemistry, 2024)
# Columns and labels:
# Type in all cases: physicochemical
# [1] = Amyloid aggregation propensity by thioflavin-T (ThT) fluorescence
# Source text: (§1) The pH-sensitive, reversible amyloid aggregation of GLP-1 and related gastrointestinal hormones is an inherent and functionally critical property. They are stored as condensed amyloids at low pH before being released as monomeric, folded hormones at neutral pH. At the same time, the exact evolutionary origin[45] of Ex4 with its functional role as a salivary toxin in lizards remains unknown.[45],[46] The difference in secretion pathways is notable: GLP-1 is secreted into the bloodstream, while Ex4 is secreted into the alimentary canal. […] In terms of structure, the polyproline tail of the Ex4 Tc fold effectively shields the −^21LFIEWL^26− aggregation-prone region[40] (APR) of the facing α-helix, while the similar −^21EFIAWL^26− helical segment of GLP-1 remains unshielded. We therefore investigated the short- and long-term aggregation behavior of GLP-1, Ex4, and related Tc5b-modified variants using an amyloid-specific thioflavin-T fluorescence assay, CD spectroscopy, and atomic force microscopy (AFM) at 37 °C (Figure 5).
# The exact peptide content percentage of the lyophilized peptides was determined by using a Nanodrop Lite UV–vis spectrophotometer at 280 nm. […] The exact concentration was determined by UV spectrometry using a Jasco V-660 spectrophotometer (Tokyo, Japan) at 412 nm with an extinction coefficient of 31.600 M^–1 cm^–1. […] A SpectraMax iD3 microplate reader (Molecular Devices, Sunnyvale, CA, USA) was used to control the experimental conditions (37 °C, orbital shaking at medium intensity) and to collect fluorescence data over 3 days. […] The emitted fluorescence was measured from the bottom of the microplate with medium photomultiplier tube sensitivity (PMT) settings and an integration time of 400 ms. […] The average fluorescence intensity of the peptide-free ThT sample was used as a background and subtracted from the average fluorescence intensity of the peptide-containing samples at each measurement point. The mean and standard deviation of ThT fluorescence intensities were plotted as a function of time using Origin software version 2022b and Excel software version 2020.
# [2] = Long-term aggregation monitored by CD spectroscopy; conditions: pH 7.4, 1 mg mL-1, 150 mM NaCl, 37 °C, 500 rpm, two weeks
# Source text: as §1, with “(APR) of the facing α-helix, while the similar −^21EFIAWL^26− helical segment of GLP-1 remains unshielded.” left out
# Circular dichroism (CD) experiments were performed using JASCO J-810 and J-1500 spectropolarimeters. […] Melting curves were recorded in the temperature range of 5–85 °C in 5 °C increments. […] Exact concentrations were determined by using a Nanodrop Lite UV–vis spectrophotometer at 280 nm. To determine the folded fraction (F%), the temperature-dependent spectrum collection of 65 CD curves was analyzed using Convex Constraint Analysis Plus software.[59] […]
# [3] = Atomic force microscopy of aggregation samples
# Procedure: Ten μL aliquots were taken from the ThT and CD measurement samples at the end point of the experiments, after 3 days and 2 weeks of agitation, respectively. These aliquots were then spread on freshly cleaved mica surfaces and dried overnight in a vacuum desiccator. In some cases, the spread samples were washed with pH-adjusted water to remove any salts that might crystallize during the drying process and potentially complicate the AFM micrograph recording. The surface morphology was analyzed using a FlexAFM microscope system (Nanosurf AG, Liestal, Switzerland) operating in dynamic mode, controlled by Nanosurf control software C3000 version 3.10.4. Micrographs were taken using Tap150GD-G cantilevers (BudgetSensors Ltd., Sofia, Bulgaria) with a nominal tip radius of less than 10 nm. Prescreening was run before data collection to avoid significant height variations in the surface topology. Data collection was performed at different locations within each sample. Images were recorded with a maximum window size of 10 × 10 μm at a resolution of 512 pixels/line. Gwyddion 2.62 software was used to process the AFM data and generate the images.
substance,measurement,setting,value
glucagon-like peptide-1 [GLP-1],thioflavin-T response under acidic conditions,"[1]; ThT fluorescence, pH 4.2–4.5, 1 and 5 mg mL–1, 37 °C, orbital shaking, 3 days, triplicate",exceeded the limit of detection range
same,time to amyloid fibril formation under acidic conditions,"[1]; acidic conditions, concentration-dependent, 37 °C",≤ 1 days
same,amyloid formation under neutral pH conditions,[2],"forms amyloid assemblies under neutral pH conditions, albeit in two weeks"
same,fibril formation by AFM,"[3]; 72 h agitated acidic ThT samples, 1 mg mL–1",reveal fibril formation
same,diameter of twisted amyloid fibrils,"[3]; AFM, acidic conditions",5–10 nm
Exendin-4 [Ex4],amyloid formation / aggregation propensity,"[1]; ThT, CD and AFM, 37 °C, acidic and neutral pH, 1 and 5 mg mL–1",did not exhibit any evidence of amyloid formation
